We go through 7 sequences from the supplement of paper PMC5998384.

Data set [1] relates to HeLa Kyoto. The experiment in a line: solubility in G1/S (NP-40 vs SDS abundance) (log2 ratio); higher = more soluble. Conditions: cell cycle stage: G1/S.
For data set [2], the system named is HeLa Kyoto. As to the kind of experiment: melting temperature (median over replicates), in situ; higher = more thermally stable.
Data set [3] has as its system HeLa Kyoto. The experiment in a line: solubility change mitosis vs G1/S (difference of NP-40 vs SDS log2 ratios) (log2 ratio difference); higher = more soluble in mitosis.
Data set [4] relates to HeLa Kyoto. As to the kind of experiment: thermal stability score vs G1/S (z-score of summed log2 fold changes over temperatures); higher = more thermally stable than in G1/S.
Setting [5] is: cell cycle stage: early G1 (4.5 h after nocodazole release).
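Throughout, for melting temperature (median over replicates), in situ: HeLa Kyoto cells synchronized by double thymidine or nocodazole block, proteins quantified by TMT10plex mass spectrometry, three independent biological replicates.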
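Throughout, for solubility change mitosis vs G1/S (difference of NP-40 vs SDS log2 ratios): synchronized HeLa Kyoto cells (double thymidine block for G1/S, nocodazole release for mitosis), protein amounts in NP-40 versus SDS lysates quantified by mass spectrometry, three biological replicates.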
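Throughout, for solubility in G1/S (NP-40 vs SDS abundance): HeLa Kyoto cells arrested at G1/S by double thymidine block, proteins quantified by TMT10plex mass spectrometry in mild NP-40 versus SDS extracts, three biological replicates.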
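Throughout, for thermal stability score vs G1/S (z-score of summed log2 fold changes over temperatures): synchronized HeLa Kyoto cells, proteins quantified by TMT10plex mass spectrometry, three biological replicates, mitosis taken 0.5 h after nocodazole release, G1/S directly after double thymidine block.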

Take “MPGKLKVKIVAGRHLPVMDRASDLTDAFVEVKFGNTTFKTDVYLKSLNPQWNSEWFKFEVDDEDLQDEPLQITVLDHDTYSANDAIGKVYIDIDPLLYSEAATVISGWFPIYDTIHGIRGEINVVVKVDLFNDLNRFRQSSCGVKFFCTTSIPKCYRAVIIHGFVEELVVNEDPEYQWIDRIRTPRASNEARQRLISLMSGELQRKIGLKVLEMRGNAVVGYLQCFDLEGESGLVVRAIGTACTLDKLSSPAAFLPACNSPSKEMKEIPFNEDPNPNTHSSGPSTPLKNQTYSFSPSKSYSRQSSSSDTDLSLTPKTGMGSGSAGKEGGPFKALLRQQTQSALEQREFPFFTLTAFPPGFLVHVGGVVSARSVKLLDRIHNPDEPETRDAWWAEIRQEIKSHAKALGCHAVVGYSESTSICEEVCILSASGTAAVLNPRFLQDGTVEGCLEQRLEENLPTRCGFCHIPYDELNMPFPAHLTYCYNCRKQKVPDVLFTTIDLPTDATVIGKGCLIQARLCRLKKKAQAEANATAISNLLPFMEYEVHTQLMNKLKLKGMNALFGLRIQITVGENMLMGLASATGVYLAALPTPGGIQIAGKTPNDGSYEQHISHMQKKINDTIAKNKELYEINPPEISEEIIGSPIPEPRQRSRLLRSQSESSDEVTELDLSHGKKDAFVLEIDDTDAMEDVHSLLTDVPPPSGFYSCNTEIMPGINNWTSEIQMFTSVRVIRLSSLNLTNQALNKNFNDLCENLLKSLYFKLRSMIPCCLCHVNFTVSLPEDELIQVTVTAVAITFDKNQALQTTKTPVEKSLQRASTDNEELLQFPLELCSDSLPSHPFPPAKAMTVEKASPVGDGNFRNRSAPPCANSTVGVVKMTPLSFIPGAKITKYLGIINMFFIRETTSLREEGGVSGFLHAFIAEVFAMVRAHVAALGGNAVVSYIMKQCVFMENPNKNQAQCLINVSGDAVVFVRESDLEVVSSQQPTTNCQSSCTEGEVTT [C2CD5]”: in the data set with HeLa Kyoto [1], the “solubility in G1/S (log2)” value stood at 0.000995. Besides, the melting temperature with HeLa Kyoto [2] (cell cycle stage: G1/S) is 52.2 °C; in the data set with HeLa Kyoto [2] (cell cycle stage: mitosis), 52.3 °C. In addition, the “solubility change mitosis (log2)” value with HeLa Kyoto [3] was -0.067. Besides, the values for the thermal stability score in the data set on HeLa Kyoto [4] (setting [5]) and with HeLa Kyoto [4] (cell cycle stage: mitosis) were 0.25 and -0.02, respectively.

With “MPGVIPSESNGLSRGSPSKKNRLSLKFFQKKETKRALDFTDSQENEEKASEYRASEIDQVVPAAQSSPINCEKRENLLPFVGLNNLGNTCYLNSILQVLYFCPGFKSGVKHLFNIISRKKEALKDEANQKDKGNCKEDSLASYELICSLQSLIISVEQLQASFLLNPEKYTDELATQPRRLLNTLRELNPMYEGYLQHDAQEVLQCILGNIQETCQLLKKEEVKNVAELPTKVEEIPHPKEEMNGINSIEMDSMRHSEDFKEKLPKGNGKRKSDTEFGNMKKKVKLSKEHQSLEENQRQTRSKRKATSDTLESPPKIIPKYISENESPRPSQKKSRVKINWLKSATKQPSILSKFCSLGKITTNQGVKGQSKENECDPEEDLGKCESDNTTNGCGLESPGNTVTPVNVNEVKPINKGEEQIGFELVEKLFQGQLVLRTRCLECESLTERREDFQDISVPVQEDELSKVEESSEISPEPKTEMKTLRWAISQFASVERIVGEDKYFCENCHHYTEAERSLLFDKMPEVITIHLKCFAASGLEFDCYGGGLSKINTPLLTPLKLSLEEWSTKPTNDSYGLFAVVMHSGITISSGHYTASVKVTDLNSLELDKGNFVVDQMCEIGKPEPLNEEEARGVVENYNDEEVSIRVGGNTQPSKVLNKKNVEAIGLLGGQKSKADYELYNKASNPDKVASTAFAENRNSETSDTTGTHESDRNKESSDQTGINISGFENKISYVVQSLKEYEGKWLLFDDSEVKVTEEKDFLNSLSPSTSPTSTPYLLFYKKL [USP1]”, the “solubility in G1/S (log2)” value in the data set with HeLa Kyoto [1] was -0.118. Further, the melting temperature with HeLa Kyoto [2] (cell cycle stage: G1/S) is 48.8 °C. Besides, the “solubility change mitosis (log2)” value in the data set on HeLa Kyoto [3] is -0.0658. The thermal stability score with HeLa Kyoto [4] (setting [5]) turned out to be 0.238; with HeLa Kyoto [4] (cell cycle stage: mitosis) it was 1.6.

For “MPHRKERPSGSSLHTHGSTGTAEGGNMSRLSLTRSPVSPLAAQGIPLPAQLTKSNAPVHIDVGGHMYTSSLATLTKYPDSRISRLFNGTEPIVLDSLKQHYFIDRDGEIFRYVLSFLRTSKLLLPDDFKDFSLLYEEARYYQLQPMVRELERWQQEQEQRRRSRACDCLVVRVTPDLGERIALSGEKALIEEVFPETGDVMCNSVNAGWNQDPTHVIRFPLNGYCRLNSVQVLERLFQRGFSVAASCGGGVDSSQFSEYVLCREERRPQPTPTAVRIKQEPLD [KCTD15]”, the “solubility in G1/S (log2)” value in the data set with HeLa Kyoto [1] amounted to 0.447. The melting temperature in the data set with HeLa Kyoto [2] (cell cycle stage: G1/S) was 56 °C; in the data set with HeLa Kyoto [2] (cell cycle stage: mitosis), 56.9 °C. For the same sequence, the “solubility change mitosis (log2)” value in the data set with HeLa Kyoto [3] was -0.0635. Besides, the thermal stability score with HeLa Kyoto [4] (setting [5]) is -2.02; in the data set on HeLa Kyoto [4] (cell cycle stage: mitosis) it was 0.00454.

As to “MPKKFQGENTKSAAARARRAEAKAAADAKKQKELEDAYWKDDDKHVMRKEQRKEEKEKRRLDQLERKKETQRLLEEEDSKLKGGKAPRVATSSKVTRAQIEDTLRRDHQLREAPDTAEKAKSHLEVPLEENVNRRVLEEGSVEARTIEDAIAVLSVAEEAADRHPERRMRAAFTAFEEAQLPRLKQENPNMRLSQLKQLLKKEWLRSPDNPMNQRAVPFNAPK [CCDC124]”, the “solubility in G1/S (log2)” value with HeLa Kyoto [1] came out at 0.214. In addition, the figures for the melting temperature with HeLa Kyoto [2] (cell cycle stage: G1/S) and in the data set on HeLa Kyoto [2] (cell cycle stage: mitosis) were 57.1 °C and 53.7 °C, respectively. Also, the “solubility change mitosis (log2)” value in the data set on HeLa Kyoto [3] was found to be 0.537. The thermal stability score in the data set on HeLa Kyoto [4] (setting [5]) was 0.653; with HeLa Kyoto [4] (cell cycle stage: mitosis), -5.08.

Consider “MPKRKAAGQGDMRQEPKRRSARLSAMLVPVTPEVKPKRTSSSRKMKTKSDMMEENIDTSAQAVAETKQEAVVEEDYNENAKNGEAKITEAPASEKEIVEVKEENIEDATEKGGEKKEAVAAEVKNEEEDQKEDEEDQNEEKGEAGKEDKDEKGEEDGKEDKNGNEKGEDAKEKEDGKKGEDGKGNGEDGKEKGEDEKEEEDRKETGDGKENEDGKEKGDKKEGKDVKVKEDEKEREDGKEDEGGNEEEAGKEKEDLKEEEEGKEEDEIKEDDGKKEEPQSIV [HMGN5]”, for which, in the data set with HeLa Kyoto [1], the “solubility in G1/S (log2)” value is 0.255. Besides, the results for the melting temperature in the data set with HeLa Kyoto [2] (cell cycle stage: G1/S) and with HeLa Kyoto [2] (cell cycle stage: mitosis) were 59.9 °C and 59.8 °C, respectively. In addition, in the data set on HeLa Kyoto [3], the “solubility change mitosis (log2)” value was 0.272. The figures for the thermal stability score in the data set on HeLa Kyoto [4] (setting [5]) and in the data set with HeLa Kyoto [4] (cell cycle stage: mitosis) were -0.636 and -5.4, respectively.

Regarding “MPKRKVTFQGVGDEEDEDEIIVPKKKLVDPVAGSGGPGSRFKGKHSLDSDEEEDDDDGGSSKYDILASEDVEGQEAATLPSEGGVRITPFNLQEEMEEGHFDADGNYFLNRDAQIRDSWLDNIDWVKIRERPPGQRQASDSEEEDSLGQTSMSAQALLEGLLELLLPRETVAGALRRLGARGGGKGRKGPGQPSSPQRLDRLSGLADQMVARGNLGVYQETRERLAMRLKGLGCQTLGPHNPTPPPSLDMFAEELAEEELETPTPTQRGEAESRGDGLVDVMWEYKWENTGDAELYGPFTSAQMQTWVSEGYFPDGVYCRKLDPPGGQFYNSKRIDFDLYT [CD2BP2]”, the “solubility in G1/S (log2)” value in the data set on HeLa Kyoto [1] was found to be 0.00357. For the same sequence, the figures for the melting temperature with HeLa Kyoto [2] (cell cycle stage: G1/S) and with HeLa Kyoto [2] (cell cycle stage: mitosis) were 47.9 °C and 51.2 °C, respectively. Moreover, the “solubility change mitosis (log2)” value in the data set on HeLa Kyoto [3] was determined as 0.301. The thermal stability score with HeLa Kyoto [4] (setting [5]) is 0.517; in the data set with HeLa Kyoto [4] (cell cycle stage: mitosis), 0.833.

Regarding “MPKTISVRVTTMDAELEFAIQPNTTGKQLFDQVVKTIGLREVWFFGLQYQDTKGFSTWLKLNKKVTAQDVRKESPLLFKFRAKFYPEDVSEELIQDITQRLFFLQVKEGILNDDIYCPPETAVLLASYAVQSKYGDFNKEVHKSGYLAGDKLLPQRVLEQHKLNKDQWEERIQVWHEEHRGMLREDAVLEYLKIAQDLEMYGVNYFSIKNKKGSELWLGVDALGLNIYEQNDRLTPKIGFPWSEIRNISFNDKKFVIKPIDKKAPDFVFYAPRLRINKRILALCMGNHELYMRRRKPDTIEVQQMKAQAREEKHQKQMERAMLENEKKKREMAEKEKEKIEREKEELMERLKQIEEQTKKAQQELEEQTRRALELEQERKRAQSEAEKLAKERQEAEEAKEALLQASRDQKKTQEQLALEMAELTARISQLEMARQKKESEAVEWQQKAQMVQEDLEKTRAELKTAMSTPHVAEPAENEQDEQDENGAEASADLRADAMAKDRSEEERTTEAEKNERVQKHLKALTSELANARDESKKTANDMIHAENMRLGRDKYKTLRQIRQGNTKQRIDEFESM [MSN]”, the “solubility in G1/S (log2)” value with HeLa Kyoto [1] was determined as 0.0519. The melting temperature is 52.1 °C in the data set with HeLa Kyoto [2] (cell cycle stage: G1/S) and 52 °C with HeLa Kyoto [2] (cell cycle stage: mitosis). In addition, the “solubility change mitosis (log2)” value in the data set on HeLa Kyoto [3] was -0.0148. In addition, the thermal stability score in the data set on HeLa Kyoto [4] (setting [5]) is -0.264; in the data set on HeLa Kyoto [4] (cell cycle stage: mitosis) it was 1.56.
